Assay results published in patent US20070142277.

Biological target: T1, fluorogenic APP-based peptide MCA-SEVNLDAEFK(DNP)-CONH2
T1 chain: SEVNLDAEFK

B1: BACE455 (protein)
chain: ETDEEPEEPGRRGSFVEMVDNLRGKSGQGYYVEMTVGSPPQTLNILVDTGSSNFAVGAAPHPFLHRYYQRQLSSTYRDLRKGVYVPYTQGKWEGELGTDLVSIPHGPNVTVRANIAAITESDKFFINGSNWEGILGLAYAEIARIIGGIDHSLYTGSLWYTPIRREWYYEVIIVRVEINGQDLKMDCKEYNYDKSIVDSGTTNLRLPKKVFEAAVKSIKAASSTEKFPDGFWLGEQLVCWQAGTTPWNIFPVISLYLMGEVTNQSFRITILPQQYLRPVEDVATSQDDCYKFAISQSSTGTVMGAVIMEGFYVVFDRARKRIGFAVSACHVHDEFRTAAVEGPFVTLDMEDCGYNIPQTDESTLMTIAYVMAAICALFMLPLCLMVCQWRCLRCLRQQHDDFADDISLLK
- BACE activity over time: mean fluorescence signal of Substrate V cleavage by HEK293 membrane extract, 15 min (mean fluorescence signal): 125
- BACE activity over time: mean fluorescence signal of Substrate V cleavage by HEK293 membrane extract, 60 min (mean fluorescence signal): 195
- BACE activity over time: mean fluorescence signal of Substrate V cleavage by HEK293 membrane extract, 120 min (mean fluorescence signal): 228
- BACE activity over time: mean fluorescence signal of Substrate V cleavage by HEK293 membrane extract, 240 min (mean fluorescence signal): 239
